How the values were obtained:
Experiment in all cases: cell-based or functional assay
[1] = biological target: HIV-1 Env of pseudovirus 0815.v3.c3 (HIV-1)
[2] = biological target: HIV-1 Env of pseudovirus X1193_c1 (HIV-1)
[3] = biological target: HIV-1 Env of pseudovirus R3265.c06 (HIV-1)
[4] = biological target: HIV-1 Env of pseudovirus 6545.v4.c1 (HIV-1)
[5] = biological target: HIV-1 Env of pseudovirus 6540.v4.c1 (HIV-1)
[6] = biological target: HIV-1 Env of pseudovirus 928-28 (HIV-1)
[7] = biological target: HIV-1 Env of pseudovirus 620345.c01 (HIV-1)
[8] = biological target: HIV-1 Env of pseudovirus 235-47 (HIV-1)
[9] = biological target: HIV-1 Env of pseudovirus P0402_c2_11 (HIV-1)
[10] = biological target: HIV-1 Env of pseudovirus 6480.v4.c25 (HIV-1)
[11] = biological target: HIV-1 Env of pseudovirus R1166.c01 (HIV-1)
[12] = biological target: HIV-1 Env of pseudovirus X1632_S2_B10 (HIV-1)
[13] = biological target: HIV-1 Env of pseudovirus A07412M1.vrc12 (HIV-1)
[14] = biological target: HIV-1 Env of pseudovirus C1080.c03 (HIV-1)
[15] = biological target: HIV-1 Env of pseudovirus X1254_c3 (HIV-1)
[16] = biological target: HIV-1 Env of pseudovirus C3347.c11 (HIV-1)
[17] = biological target: HIV-1 Env of pseudovirus T278-50 (HIV-1)
[18] = biological target: HIV-1 Env of pseudovirus 263-8 (HIV-1)
[19] = biological target: HIV-1 Env of pseudovirus 3817.v2.c59 (HIV-1)
[20] = biological target: HIV-1 Env of pseudovirus BJOX015000.11.5 (HIV-1)
[21] = biological target: HIV-1 Env of pseudovirus 3016.v5.c45 (HIV-1)
[22] = biological target: HIV-1 Env of pseudovirus 9004SS_A3_4 (HIV-1)
[23] = biological target: HIV-1 Env of pseudovirus BJOX025000.01.1 (HIV-1)
[24] = biological target: HIV-1 Env of pseudovirus R2184.c04 (HIV-1)
[25] = biological target: HIV-1 Env of pseudovirus 231965.c01 (HIV-1)
[26] = biological target: HIV-1 Env of pseudovirus 6811.v7.c18 (HIV-1)
[27] = biological target: HIV-1 Env of pseudovirus X2088_c9 (HIV-1)
[28] = biological target: HIV-1 Env of pseudovirus 6041.v3.c23 (HIV-1)
[29] = biological target: HIV-1 Env of pseudovirus 6952.v1.c20 (HIV-1)
[30] = biological target: HIV-1 Env of pseudovirus 3103.v3.c10 (HIV-1)
[31] = biological target: HIV-1 Env of pseudovirus X2131_C1_B5 (HIV-1)
[32] = biological target: HIV-1 Env of pseudovirus T251-18 (HIV-1)
[33] = biological target: HIV-1 Env of pseudovirus BJOX028000.10.3 (HIV-1)
[34] = biological target: HIV-1 Env of pseudovirus 3301.v1.c24 (HIV-1)
[35] = biological target: HIV-1 Env of pseudovirus T257-31 (HIV-1)
[36] = biological target: HIV-1 Env of pseudovirus 231966.c02 (HIV-1)

Substance: PGT145 (antibody)
- IC50 (Titer in TZM.bl cells) [1]: > 50 µg/mL
- IC80 (Titer in TZM.bl cells) [1]: > 50 µg/mL
- IC50 (Titer in TZM.bl cells) [2]: 0.013 µg/mL
- IC80 (Titer in TZM.bl cells) [2]: 0.091 µg/mL
- IC50 (Titer in TZM.bl cells) [3]: 0.037 µg/mL
- IC80 (Titer in TZM.bl cells) [3]: 0.227 µg/mL
- IC50 (Titer in TZM.bl cells) [4]: 0.114 µg/mL
- IC80 (Titer in TZM.bl cells) [4]: 3.1 µg/mL
- IC50 (Titer in TZM.bl cells) [5]: 0.08 µg/mL
- IC80 (Titer in TZM.bl cells) [5]: 5.09 µg/mL
- neutralization IC50 [6]: > 50 µg/mL
- neutralization IC80 [6]: > 50 µg/mL
- IC50 (Titer in TZM.bl cells) [7]: 0.241 µg/mL
- IC80 (Titer in TZM.bl cells) [7]: 19.7 µg/mL
- IC50 (Titer in TZM.bl cells) [8]: 3.21 µg/mL
- IC80 (Titer in TZM.bl cells) [8]: 36 µg/mL
- IC50 (Titer in TZM.bl cells) [9]: 9 ng/mL
- IC80 (Titer in TZM.bl cells) [9]: 0.038 µg/mL
- IC50 (Titer in TZM.bl cells) [10]: > 50 µg/mL
- IC80 (Titer in TZM.bl cells) [10]: > 50 µg/mL
- IC50 (Titer in TZM.bl cells) [11]: 2.27 µg/mL
- IC80 (Titer in TZM.bl cells) [11]: 17.9 µg/mL
- IC50 (Titer in TZM.bl cells) [12]: 0.012 µg/mL
- IC80 (Titer in TZM.bl cells) [12]: 2.03 µg/mL
- IC50 (Titer in TZM.bl cells) [13]: 2 ng/mL
- IC80 (Titer in TZM.bl cells) [13]: 0.023 µg/mL
- IC50 (Titer in TZM.bl cells) [14]: 0.024 µg/mL
- IC80 (Titer in TZM.bl cells) [14]: 0.146 µg/mL
- IC50 (Titer in TZM.bl cells) [15]: 5.6 µg/mL
- IC80 (Titer in TZM.bl cells) [15]: > 50 µg/mL
- IC50 (Titer in TZM.bl cells) [16]: 5 ng/mL
- IC80 (Titer in TZM.bl cells) [16]: 0.044 µg/mL
- IC50 (Titer in TZM.bl cells) [17]: 10.3 µg/mL
- IC80 (Titer in TZM.bl cells) [17]: > 50 µg/mL
- neutralization IC50 [18]: 32.1 µg/mL
- neutralization IC80 [18]: > 50 µg/mL
- IC50 (Titer in TZM.bl cells) [19]: > 50 µg/mL
- IC80 (Titer in TZM.bl cells) [19]: > 50 µg/mL
- IC50 (Titer in TZM.bl cells) [20]: > 50 µg/mL
- IC80 (Titer in TZM.bl cells) [20]: > 50 µg/mL
- IC50 (Titer in TZM.bl cells) [21]: > 50 µg/mL
- IC80 (Titer in TZM.bl cells) [21]: > 50 µg/mL
- neutralization IC50 [22]: 0.018 µg/mL
- neutralization IC80 [22]: 0.419 µg/mL
- IC50 (Titer in TZM.bl cells) [23]: 6.63 µg/mL
- IC80 (Titer in TZM.bl cells) [23]: > 50 µg/mL
- IC50 (Titer in TZM.bl cells) [24]: 0.073 µg/mL
- IC80 (Titer in TZM.bl cells) [24]: 0.376 µg/mL
- IC50 (Titer in TZM.bl cells) [25]: 0.403 µg/mL
- IC80 (Titer in TZM.bl cells) [25]: 15 µg/mL
- IC50 (Titer in TZM.bl cells) [26]: > 50 µg/mL
- IC80 (Titer in TZM.bl cells) [26]: > 50 µg/mL
- IC50 (Titer in TZM.bl cells) [27]: > 50 µg/mL
- IC80 (Titer in TZM.bl cells) [27]: > 50 µg/mL
- IC50 (Titer in TZM.bl cells) [28]: 0.964 µg/mL
- IC80 (Titer in TZM.bl cells) [28]: > 50 µg/mL
- IC50 (Titer in TZM.bl cells) [29]: 3.12 µg/mL
- IC80 (Titer in TZM.bl cells) [29]: > 50 µg/mL
- IC50 (Titer in TZM.bl cells) [30]: 0.043 µg/mL
- IC80 (Titer in TZM.bl cells) [30]: 0.164 µg/mL
- IC50 (Titer in TZM.bl cells) [31]: 0.018 µg/mL
- IC80 (Titer in TZM.bl cells) [31]: 0.065 µg/mL
- IC50 (Titer in TZM.bl cells) [32]: 0.351 µg/mL
- IC80 (Titer in TZM.bl cells) [32]: 1.39 µg/mL
- IC50 (Titer in TZM.bl cells) [33]: > 50 µg/mL
- IC80 (Titer in TZM.bl cells) [33]: > 50 µg/mL
- IC50 (Titer in TZM.bl cells) [34]: 0.219 µg/mL
- IC80 (Titer in TZM.bl cells) [34]: 4.22 µg/mL
- neutralization IC50 [35]: 5.18 µg/mL
- neutralization IC80 [35]: > 50 µg/mL
- IC50 (Titer in TZM.bl cells) [36]: < 1 ng/mL
- IC80 (Titer in TZM.bl cells) [36]: 0.01 µg/mL

Source: patent US20240117018A1
